Results: publication PMC6430831
Blank lines part the entries; values can stand above or below the substance they belong to.

Tests used:
IKKε = IKKε (UniProt Q14164); experiment: anti-GEF-H1 co-IP, IKKε blot; conditions: sites S886
IRF5 = IRF5 (UniProt Q13568); experiment: anti-GEF-H1 co-IP, IRF5 blot; conditions: reference: wild type; sites S886

binding against the reference (IKKε; reference: S324A): stronger
Substance: GEF-H1 (from UniProt Q92974) S324A/S886A

binding against the reference (IKKε; reference: S399A): gained
Substance: GEF-H1 (from UniProt Q92974) S399A/S886A

binding against the reference (IKKε; reference: wild type): stronger
binding against the reference (IRF5): stronger
Substance: GEF-H1 (from UniProt Q92974) S886A
